The Kd is the equilibrium constant for the complex coming apart.

The test has as its target recombinant mouse transferrin receptor (TfR) protein (mouse) (UniProt Q62351). In words: SPR; Biacore 3000, CM5 chip, receptors immobilised by EDC/NHS coupling (TfR 58 fmol/mm^2, LRP-1 0.025 fmol/mm^2); peptides injected at 0.25-4 uM, 5 uL/min, 25°C, 10 mM HEPES, 150 mM NaCl, 1.5 mM CaCl2, 1 mM EGTA, 0.005% Tween 20, pH 7.4; Langmuir 1:1 model, global fit. A general note: SPR reads the build-up and loss of mass on a sensor chip optically.

Ends that are not written are not given here.

recombinant mouse transferrin receptor (TfR) protein (mouse), sequence (Q62351 whole entry): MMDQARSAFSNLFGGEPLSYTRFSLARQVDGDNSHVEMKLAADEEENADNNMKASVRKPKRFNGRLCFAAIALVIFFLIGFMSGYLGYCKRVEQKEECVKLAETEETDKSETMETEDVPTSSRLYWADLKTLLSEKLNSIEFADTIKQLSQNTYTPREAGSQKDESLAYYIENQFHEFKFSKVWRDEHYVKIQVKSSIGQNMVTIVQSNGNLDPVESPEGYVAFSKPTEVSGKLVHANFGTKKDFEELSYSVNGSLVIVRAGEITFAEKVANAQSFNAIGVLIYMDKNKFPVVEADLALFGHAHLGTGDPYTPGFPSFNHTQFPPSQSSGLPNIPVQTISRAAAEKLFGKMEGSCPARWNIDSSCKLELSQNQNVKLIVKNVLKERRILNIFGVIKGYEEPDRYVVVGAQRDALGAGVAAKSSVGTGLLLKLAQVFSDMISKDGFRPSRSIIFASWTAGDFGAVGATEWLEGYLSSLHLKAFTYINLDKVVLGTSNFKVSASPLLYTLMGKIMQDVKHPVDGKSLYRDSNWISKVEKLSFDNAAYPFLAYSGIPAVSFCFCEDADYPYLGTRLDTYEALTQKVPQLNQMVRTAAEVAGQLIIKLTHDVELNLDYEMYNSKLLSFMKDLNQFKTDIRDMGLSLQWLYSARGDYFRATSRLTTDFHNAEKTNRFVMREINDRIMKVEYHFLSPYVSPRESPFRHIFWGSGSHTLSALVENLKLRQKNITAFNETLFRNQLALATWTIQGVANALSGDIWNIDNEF

B1: GYR (peptide 2) (peptide)
peptide: GYRPVHNIRGHWAPGK-NH2
Consider B1, for which the Kd amounted to 1000 µM.

The values above are taken from publication PMC8018780, “Two peptides targeting endothelial receptors are internalized into murine brain endothelial cells” (PLoS ONE, 2021).
